# Measurements: patent US20140179604A1 (U S A REPRESENTED BY THE DEPARTMENT OF VETERANS AFFAIRS, published 2014)
# Non-standard residues stand in square brackets, D forms with d. No end group written: not given here. *: point of attachment. Desaminotyrosyl = O=C(CCc1ccc(O)cc1)*; NMeY = CN[C@@H](Cc1ccc(O)cc1)C(=O)O; Agmatine = N=C(N)NCCCCN*; Nle = CCCC[C@H](N)C(=O)O; Orn = NCCC[C@H](N)C(=O)O; dAbu = CC[C@@H](N)C(=O)O; Abu = CC[C@H](N)C(=O)O; GABA = NCCCC(=O)O
# T1: GHRH receptor (membrane receptors of human anterior pituitary cells) (human, UniProt Q02643 23-423)
# T1 construct: whole, on cells; Native receptor in a membrane fraction of purchased normal human pituitaries, not intact cells; also called hGHRH receptor; human pituitary membrane homogenates
# T1 sequence (looked up): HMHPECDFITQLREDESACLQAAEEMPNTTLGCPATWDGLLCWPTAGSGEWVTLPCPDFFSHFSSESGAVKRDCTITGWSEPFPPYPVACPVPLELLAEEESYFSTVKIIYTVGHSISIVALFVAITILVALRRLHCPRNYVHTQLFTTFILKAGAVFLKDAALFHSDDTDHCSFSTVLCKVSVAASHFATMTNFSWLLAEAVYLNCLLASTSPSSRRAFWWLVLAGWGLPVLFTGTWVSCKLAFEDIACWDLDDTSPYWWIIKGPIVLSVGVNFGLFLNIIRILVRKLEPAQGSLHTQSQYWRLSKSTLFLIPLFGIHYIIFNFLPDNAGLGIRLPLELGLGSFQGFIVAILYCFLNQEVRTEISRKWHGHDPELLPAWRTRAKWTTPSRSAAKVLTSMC
# Assays:
# [1] = target: T1, GHRH receptor (membrane receptors of …); experiment: competition with 125I-[His1,Nle27]hGHRH(1-32)NH2, human pituitary membranes
# Description: Normal human pituitary was purchased from the National Hormone and Peptide Program (UCLA Medical Center, Torrance, Calif.).
# [2] = target: T1, GHRH receptor (membrane receptors of …); experiment: competition with 125I-JV-1-42, human pituitary membranes
# Description: Normal human pituitaries were purchased from the National Hormone and Peptide Program (A. F. Parlow, Los Angeles, County Harbor-UCLA Medical Center, Torrance, Calif.).
Binder,IC50 [1] [nM],Relative affinity (Binding potency) compared to JI-38 [1] [JI-38 = 1],Relative affinity (Binding potency) compared to hGHRH(1-29) [1],IC50 [2] [nM],Relative affinity (Binding potency) vs JI-38 [2] [JI-38 = 1]
"[Desaminotyrosyl][dA]DAIFTQSYR[Orn]VL[Abu]QLSAR[Orn]LLQDI[Nle]DR-NHMe (SMILES CCCC[C@H](NC(=O)[C@@H](NC(=O)[C@H](CC(=O)O)NC(=O)[C@H](CCC(N)=O)NC(=O)[C@H](CC(C)C)NC(=O)[C@H](CC(C)C)NC(=O)[C@H](CCCN)NC(=O)[C@H](CCCNC(=N)N)NC(=O)[C@H](C)NC(=O)[C@H](CO)NC(=O)[C@H](CC(C)C)NC(=O)[C@H](CCC(N)=O)NC(=O)[C@H](CC)NC(=O)[C@H](CC(C)C)NC(=O)[C@@H](NC(=O)[C@H](CCCN)NC(=O)[C@H](CCCNC(=N)N)NC(=O)[C@H](Cc1ccc(O)cc1)NC(=O)[C@H](CO)NC(=O)[C@H](CCC(N)=O)NC(=O)[C@@H](NC(=O)[C@H](Cc1ccccc1)NC(=O)[C@@H](NC(=O)[C@H](C)NC(=O)[C@H](CC(=O)O)NC(=O)[C@@H](C)NC(=O)CCc1ccc(O)cc1)[C@@H](C)CC)[C@@H](C)O)C(C)C)[C@@H](C)CC)C(=O)N[C@@H](CC(=O)O)C(=O)N[C@@H](CCCNC(=N)N)C(=O)NC, also called MR-408; MR408) [P-27408 [Dat^1, D-Ala^2, Gln^8, Orn^12, Abu^15, Orn^21, Nle^27, Asp^28]hGHRH(1-29)NH-CH3]",6.32,0.53,1.21 hGHRH(1-29)NH2 = 1,0.55,7.91
"Ac-[NMeY][dA]DAIFTQSYR[Orn]VL[Abu]QLSAR[Orn]LLQDI[Nle]D[Agmatine] (SMILES CCCC[C@H](NC(=O)[C@@H](NC(=O)[C@H](CC(=O)O)NC(=O)[C@H](CCC(N)=O)NC(=O)[C@H](CC(C)C)NC(=O)[C@H](CC(C)C)NC(=O)[C@H](CCCN)NC(=O)[C@H](CCCNC(=N)N)NC(=O)[C@H](C)NC(=O)[C@H](CO)NC(=O)[C@H](CC(C)C)NC(=O)[C@H](CCC(N)=O)NC(=O)[C@H](CC)NC(=O)[C@H](CC(C)C)NC(=O)[C@@H](NC(=O)[C@H](CCCN)NC(=O)[C@H](CCCNC(=N)N)NC(=O)[C@H](Cc1ccc(O)cc1)NC(=O)[C@H](CO)NC(=O)[C@H](CCC(N)=O)NC(=O)[C@@H](NC(=O)[C@H](Cc1ccccc1)NC(=O)[C@@H](NC(=O)[C@H](C)NC(=O)[C@H](CC(=O)O)NC(=O)[C@@H](C)NC(=O)[C@H](Cc1ccc(O)cc1)N(C)C(C)=O)[C@@H](C)CC)[C@@H](C)O)C(C)C)[C@@H](C)CC)C(=O)N[C@@H](CC(=O)O)C(=O)NCCCCNC(=N)N, also called MR-351; Peptide 20351)",3.87,0.71,1.98 hGHRH(1-29)NH2 = 1,3.44,1.26
"[Desaminotyrosyl][dAbu]DAIFTNSYR[Orn]VL[Abu]QLSAR[Orn]LLQDI[Nle]SR[GABA]-NH2 (SMILES CCCC[C@H](NC(=O)[C@@H](NC(=O)[C@H](CC(=O)O)NC(=O)[C@H](CCC(N)=O)NC(=O)[C@H](CC(C)C)NC(=O)[C@H](CC(C)C)NC(=O)[C@H](CCCN)NC(=O)[C@H](CCCNC(=N)N)NC(=O)[C@H](C)NC(=O)[C@H](CO)NC(=O)[C@H](CC(C)C)NC(=O)[C@H](CCC(N)=O)NC(=O)[C@H](CC)NC(=O)[C@H](CC(C)C)NC(=O)[C@@H](NC(=O)[C@H](CCCN)NC(=O)[C@H](CCCNC(=N)N)NC(=O)[C@H](Cc1ccc(O)cc1)NC(=O)[C@H](CO)NC(=O)[C@H](CC(N)=O)NC(=O)[C@@H](NC(=O)[C@H](Cc1ccccc1)NC(=O)[C@@H](NC(=O)[C@H](C)NC(=O)[C@H](CC(=O)O)NC(=O)[C@@H](CC)NC(=O)CCc1ccc(O)cc1)[C@@H](C)CC)[C@@H](C)O)C(C)C)[C@@H](C)CC)C(=O)N[C@@H](CO)C(=O)N[C@@H](CCCNC(=N)N)C(=O)NCCCC(N)=O, also called MR-504; Peptide 25504) [P-25504 [Dat^1, D-Abu^2, Orn^12, Abu^15, Orn^21, Nle^27, Gab^30]hGHRH(1-30)NH2]",2.85,0.96,2.68 hGHRH(1-29)NH2 = 1,1.44,3.02

# Now from value to binder:
IC50 [1] [nM],Relative affinity (Binding potency) compared to JI-38 [1] [JI-38 = 1],Relative affinity (Binding potency) compared to hGHRH(1-29) [1],IC50 [2] [nM],Relative affinity (Binding potency) vs JI-38 [2] [JI-38 = 1],Binder
0.74,3.69,10.3 hGHRH(1-29)NH2 = 1,0.16,27.2,"[NMeY][dA]DAIFTQSYR[Orn]VL[Abu]QLSAR[Orn]LLQDI[Nle]DR-NHMe [P-27403 [N-Me-Tyr^1, D-Ala^2, Gln^8, Orn^12, Abu^15, Orn^21, Nle^27, Asp^28]hGHRH(1-29)NH-CH3]"
2.7,1.01,2.83 hGHRH(1-29)NH2 = 1,0.52,8.37,"[NMeY][dA]DAIFTQSYR[Orn]VL[Abu]QLSAR[Orn]LLQDI[Nle]DR-NHEt (also called MR-420; Peptide 28420) [P-28420 [N-Me-Tyr^1, D-Ala^2, Gln^8, Orn^12, Abu^15, Orn^21, Nle^27, Asp^28]hGHRH(1-29)NH-CH2-CH3]"
1.19,2.3,6.42 hGHRH(1-29)NH2 = 1,0.82,5.3,"[NMeY][dA]DAIFTQSYR[Orn]VL[Abu]QLSAR[Orn]LLQDI[Nle]D[Agmatine] (also called Peptide 20361) [P-20361 [N-Me-Tyr^1, D-Ala^2, Gln^8, Orn^12, Abu^15, Orn^21, Nle^27, Asp^28, Agm^29]hGHRH(1-29)NH2]"
